Test results from patent US8435548 (BIO FD AND C, dated 2013).
Where no end group is shown, it is not given here. The star is where a group is joined. Galloyl = O=C(c1cc(O)c(O)c(O)c1)*

Target: mushroom tyrosinase (1,500 units/ml, Sigma) (mushroom)
Test: cell-based or functional assay

Point of comparison: Galloyl-Tyr-His-Tyr [Galloyl-tripeptide (tyrosyl-histidyl-tyrosine)], “Inhibition (%) of tyrosinase activity (absorbance at 490 nm, L-tyrosine substrate, compound at 100 µM)” value 15%. Against it:
- Galloyl-Glu-Cys-Gly [Galloyl-tripeptide (glutamyl-cysteinyl-glycine)] — higher, 34%
- Galloyl-KECG [Galloyl-tetrapeptide (lysyl-glutamyl-cysteinyl-glycine)] — higher, 40%
- KYHY (also: two galloyl groups, attachment sites not given here) [Digalloyl-tetrapeptide (lysyl-tyrosyl-histidyl-tyrosine)] — higher, 21%
- Galloyl-YGGFLRKYPK [Galloyl-decapeptide (tyrosyl-glycyl-glycyl-phenylalanyl-leucyl-arginyl-lysyl-tyrosyl-prolyl-lysine)] — lower, 5%
- KECG (also: two galloyl groups, attachment sites shown only in formula IV) [Digalloyl-tetrapeptide (lysyl-glutamyl-cysteinyl-glycine)] — higher, 52%
